Results: IntAct's records for PubMed 24389026

B1: Ubiquitin-conjugating enzyme E2 T (Homo sapiens), Q9NPD8 (parent)
chain: MQRASRLKRELHMLATEPPPGITCWQDKDQMDDLRAQILGGANTPYEKGVFKLEVIIPERYPFEPPQIRFLTPIYHPNIDSAGRICLDVLKLPPKGAWRPSLNIATVLTSIQLLMSEPNPDDPLMADISSEFKYNKPAFLKNARQWTEKHARQKQKADEEEMLDNLPEAGDSRVHNSTQKRKASQLVGIEKKFHPDV
partner: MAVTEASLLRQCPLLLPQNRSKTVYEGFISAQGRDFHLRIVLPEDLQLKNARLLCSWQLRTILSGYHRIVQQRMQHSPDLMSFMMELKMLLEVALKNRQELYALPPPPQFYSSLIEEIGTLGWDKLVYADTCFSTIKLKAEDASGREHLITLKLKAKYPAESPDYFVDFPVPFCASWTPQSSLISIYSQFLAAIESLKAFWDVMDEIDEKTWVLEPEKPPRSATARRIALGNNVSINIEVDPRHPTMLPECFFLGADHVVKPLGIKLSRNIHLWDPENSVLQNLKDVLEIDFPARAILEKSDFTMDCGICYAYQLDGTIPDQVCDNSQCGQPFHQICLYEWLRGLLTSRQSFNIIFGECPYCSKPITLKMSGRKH
B2: E3 ubiquitin-protein ligase FANCL (Homo sapiens), Q9NW38-1 (parent)
chain: B1 partner

Variants of: B1
Details: with FANCL

effect of a mutation on the interaction | Variant
disrupting interaction strength | MQRASRLKRELHMLATEPPPGITCWQDKDQMDDLRAQILGGANTPYEKGVFKLEVIIPEEYPFEPPQIRFLTPIYHPNIDSAGRICLDVLKLPPKGAWRPSLNIATVLTSIQLLMSEPNPDDPLMADISSEFKYNKPAFLKNARQWTEKHARQKQKADEEEMLDNLPEAGDSRVHNSTQKRKASQLVGIEKKFHPDV [R60E]

Variants of: B2
Details: with ube2t_human UBE2T

effect of a mutation on the interaction | Variant
disrupting interaction strength | MAVTEASLLRQCPLLLPQNRSKTVYEGFISAQGRDFHLRIVLPEDLQLKNARLLCSWQLRTILSGYHRIVQQRMQHSPDLMSFMMELKMLLEVALKNRQELYALPPPPQFYSSLIEEIGTLGWDKLVYADTCFSTIKLKAEDASGREHLITLKLKAKYPAESPDYFVDFPVPFCASWTPQSSLISIYSQFLAAIESLKAFWDVMDEIDEKTWVLEPEKPPRSATARRIALGNNVSINIEVDPRHPTMLPECFFLGADHVVKPLGIKLSRNIHLWDPENSVLQNLKDVLEIDFPARAILEKSDFTMDCGICYAYQLDGTIPDQVCDNSQCGQPFHQICLYEALRGLLTSRQSFNIIFGECPYCSKPITLKMSGRKH [W341A]
disrupting interaction strength | MAVTEASLLRQCPLLLPQNRSKTVYEGFISAQGRDFHLRIVLPEDLQLKNARLLCSWQLRTILSGYHRIVQQRMQHSPDLMSFMMELKMLLEVALKNRQELYALPPPPQFYSSLIEEIGTLGWDKLVYADTCFSTIKLKAEDASGREHLITLKLKAKYPAESPDYFVDFPVPFCASWTPQSSLISIYSQFLAAIESLKAFWDVMDEIDEKTWVLEPEKPPRSATARRIALGNNVSINIEVDPRHPTMLPECFFLGADHVVKPLGIKLSRNIHLWDPENSVLQNLKDVLEIDFPARAILEKSDFTMDCGACYAYQLDGTIPDQVCDNSQCGQPFHQICLYEWLRGLLTSRQSFNIIFGECPYCSKPITLKMSGRKH [I309A]
disrupting interaction strength | MAVTEASLLRQCPLLLPQNRSKTVYEGFISAQGRDFHLRIVLPEDLQLKNARLLCSWQLRTILSGYHRIVQQRMQHSPDLMSFMMELKMLLEVALKNRQELYALPPPPQFYSSLIEEIGTLGWDKLVYADTCFSTIKLKAEDASGREHLITLKLKAKYPAESPDYFVDFPVPFCASWTPQSSLISIYSQFLAAIESLKAFWDVMDEIDEKTWVLEPEKPPRSATARRIALGNNVSINIEVDPRHPTMLPECFFLGADHVVKPLGIKLSRNIHLWDPENSVLQNLKDVLEIDFPARAILEKSDFTMDCGICAAYQLDGTIPDQVCDNSQCGQPFHQICLYEWLRGLLTSRQSFNIIFGECPYCSKPITLKMSGRKH [Y311A]
